Laboratory results as given in US20130136748A1 (Ablynx, published 2013).
Read-outs that look alike come from different tables or passages of the source. Each block holds one molecule with its values, some of them ahead of it.

Legend:
[1] = target: human HER4 (human, UniProt Q15303 26-1308); assay: FACS CHO-HER4, 5 µg/ml
[2] = target: T1, human HER2 (human, UniProt P04626 23-1255); assay: FACS CHO-HER2, 5 µg/ml
T1 construct: also called hHER2

[3] = target: T2, human HER1 (human, UniProt P00533 25-1210); assay: FACS CHO-HER1, 5 µg/ml
T2 construct: also called EGFR; ErbB1

[4] = target: T3, hHER3 full length (human, UniProt P21860 20-1342); assay: cell-based or functional assay
[5] = target: T4, human HER3-Fc (R&D Systems, 348-RB) (human, UniProt P21860 20-643); assay: HRG competition alphascreen
T4 construct: Bought; also called hHER3-Fc; Fc-HER3; Fc part of the bought chimera not given, not described

[6] = target: T4, human HER3-Fc (R&D Systems, 348-RB); assay: HRG competition alphascreen; remark: listed apart in the source
[7] = target: T4, human HER3-Fc (R&D Systems, 348-RB); assay: HRG competition alphascreen; remark: listed apart in the source
[8] = target: T5, hHER3 ECD (human HER3 extracellular domain) (human, UniProt P21860 20-643); assay: SPR off rate on HER3-ECD
T5 construct: also called recombinant HER3-ECD

[9] = target: T4, human HER3-Fc (R&D Systems, 348-RB); assay: 34C07 competition alphascreen
[10] = target: T3, hHER3 full length; assay: cell-based or functional assay; remark: listed apart in the source
[11] = target: T3, hHER3 full length; assay: cell-based or functional assay; remark: listed apart in the source
[12] = target: T5, hHER3 ECD (human HER3 extracellular …); assay: SPR off rate on HER3-ECD; remark: listed apart in the source
[13] = target: T4, human HER3-Fc (R&D Systems, 348-RB); assay: HRG competition alphascreen; remark: listed apart in the source

human HER4, sequence (Q15303 26-1308 limits assumed): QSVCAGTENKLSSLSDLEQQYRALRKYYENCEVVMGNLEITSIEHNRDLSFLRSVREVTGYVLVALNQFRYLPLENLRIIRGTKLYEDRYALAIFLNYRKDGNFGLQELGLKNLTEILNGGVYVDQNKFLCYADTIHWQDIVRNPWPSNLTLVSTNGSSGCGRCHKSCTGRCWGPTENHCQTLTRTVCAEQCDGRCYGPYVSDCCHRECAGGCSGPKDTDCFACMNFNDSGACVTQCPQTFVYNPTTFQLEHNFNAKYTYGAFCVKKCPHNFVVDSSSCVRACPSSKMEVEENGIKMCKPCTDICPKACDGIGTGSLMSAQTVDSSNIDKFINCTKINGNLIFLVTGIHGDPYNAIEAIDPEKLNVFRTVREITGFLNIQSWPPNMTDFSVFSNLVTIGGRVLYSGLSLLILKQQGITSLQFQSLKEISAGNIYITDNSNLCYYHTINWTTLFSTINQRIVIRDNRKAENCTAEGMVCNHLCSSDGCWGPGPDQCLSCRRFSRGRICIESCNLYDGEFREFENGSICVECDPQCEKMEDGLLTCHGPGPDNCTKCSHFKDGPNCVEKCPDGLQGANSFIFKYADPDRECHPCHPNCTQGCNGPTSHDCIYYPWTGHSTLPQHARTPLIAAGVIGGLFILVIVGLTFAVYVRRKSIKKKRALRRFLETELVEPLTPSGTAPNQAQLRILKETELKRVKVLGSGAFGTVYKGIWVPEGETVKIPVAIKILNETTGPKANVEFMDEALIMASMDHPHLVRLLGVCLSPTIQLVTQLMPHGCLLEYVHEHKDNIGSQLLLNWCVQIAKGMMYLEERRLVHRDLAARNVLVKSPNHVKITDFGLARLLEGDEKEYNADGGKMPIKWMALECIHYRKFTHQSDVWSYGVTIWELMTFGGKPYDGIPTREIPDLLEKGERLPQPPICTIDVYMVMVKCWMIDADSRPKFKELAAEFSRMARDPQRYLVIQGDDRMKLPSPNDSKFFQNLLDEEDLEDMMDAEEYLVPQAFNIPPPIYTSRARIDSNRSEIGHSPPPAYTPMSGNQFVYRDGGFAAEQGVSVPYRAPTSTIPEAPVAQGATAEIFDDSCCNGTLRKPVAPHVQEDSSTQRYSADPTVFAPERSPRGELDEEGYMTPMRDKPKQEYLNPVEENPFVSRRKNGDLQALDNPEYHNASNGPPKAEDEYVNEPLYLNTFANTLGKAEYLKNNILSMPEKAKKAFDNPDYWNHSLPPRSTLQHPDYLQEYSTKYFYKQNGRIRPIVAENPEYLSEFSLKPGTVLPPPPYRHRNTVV

Molecule: Anti-HER4 pAb (R&D Systems AF1131) (antibody)
MCF [1]: 17000 | MCF [2]: 932 | MCF [3]: 584

Molecule: Anti-HER1 pAb (R&D Systems AF231) (antibody)
MCF [1]: 418 | MCF [2]: 888 | MCF [3]: 28200

Molecule: Anti-HER2 pAb (R&D Systems AF1129) (antibody)
MCF [1]: 578 | MCF [2]: 41000 | MCF [3]: 323

B1: HER3MS00042 (VHH)
VHH: EVQLVESGGGLVQPGGSLRLSCAASGFTFSSYPMSWVRQAPGKGPAWVSTVSPGGITTSYADSVKGRFTISRDNSKNTLYLQMNSLRPEDTAVYYCLRDLNNRGQGTLVTVSS
notes: 04C07 + A14P, A74S, K83R, Q108L; also called HER3MS0042; 04C07 basic variant
IC50 pHER3, HRG1-β1 stimulated MCF7 [4]: 6.81e-09 M | IC50 [5]: 0.31 nM | IC50 [6]: 0.31 nM

B2: HER3MS00046 (VHH)
VHH: EVQLVESGGGLVQPGGSLRLSCAASGRTYYLNAMGWFRQGPGKDREFVAAIDWSDGNKDYADSVKGRFTISRDNSKNTVYLQMNSLRPEDTAVYYCAADTPPWGPMIYIESYDSWGQGTLVTVSS
notes: 21F06 + A14P, A74S, K83R, Q108L; also called HER3MS0046; 21F06 basic variant
IC50 [7]: 0.28 nM

B3: HER3MS00048 (VHH)
VHH: EVQLVESGGGLVQPGGSLRLSCAASGRTYYLNAMGWFRQGPGKEREFVAAIDWSDGNKDYADSVKGRFTISRDNSKNTVYLQMNSLRPEDTAVYYCAADTPPWGPMIYIESYDSWGQGTLVTVSS
notes: 21F06 basic + D44E; also called HER3MS0048
IC50 [7]: 0.27 nM

B4: HER3MS00047 (VHH)
VHH: EVQLVESGGGLVQPGGSLRLSCAASGRTYYLNAMGWFRQAPGKDREFVAAIDWSDGNKDYADSVKGRFTISRDNSKNTVYLQMNSLRPEDTAVYYCAADTPPWGPMIYIESYDSWGQGTLVTVSS
notes: 21F06 basic + G40A; also called HER3MS0047
IC50 [7]: 0.21 nM

B5: HER3MS00123 (VHH)
VHH: EVQLVESGGGLVQPGGSLRLSCAASGSIFRINAMAWYRQAPGKQRELVAEITAGGSTNYADSVKGRFTISRDNSWNTLYLQMNSLRPEDTAVYYCNLDHYTTWDRRSAYWGQGTLVTVSS
koff [8]: 0.00046 s⁻¹ | IC50 [9]: 7.6 nM | IC50 pHER3 blocking, MCF7 [10]: 3.09e-08 M

Next, values leading:

koff [8]: 0.00046 s⁻¹ | IC50 [9]: 6.7 nM | IC50 pHER3 blocking, MCF7 [10]: 4.05e-08 M
B6: HER3MS00128 (VHH)
VHH: DVQLVESGGGLVQPGGSLRLSCAASGSIFRINAMAWYRQAPGKQRELVAEITAGGSTNYADSVKGRFTISRDNSWNTLYLQMNSLRAEDTAVYYCNLDHYTTWDRRSAYWGQGTLVTVSS

koff [8]: 0.00046 s⁻¹ | IC50 [9]: 8.5 nM | IC50 pHER3 blocking, MCF7 [10]: 3.88e-08 M
B7: HER3MS00127 (VHH)
VHH: DVQLVESGGGLVQPGGSLRLSCAASGSIFRINAMAWYRQAPGKQRELVAEITAGGSTNYADSVKGRFTISRDNSWNTLYLQMNSLRPEDTAVYYCNLDHYTTWDRRSAYWGQGTLVTVSS

koff [8]: 0.00045 s⁻¹ | IC50 [9]: 7.1 nM | IC50 pHER3 blocking, MCF7 [10]: 3.05e-08 M
B8: HER3MS00124 (VHH)
VHH: EVQLVESGGGLVQPGGSLRLSCAASGSIFRINAMAWYRQAPGKQRELVAEITAGGSTNYADSVKGRFTISRDNSWNTLYLQMNSLRAEDTAVYYCNLDHYTTWDRRSAYWGQGTLVTVSS

IC50 pHER3 blocking, HRG stimulated MCF7 [11]: 2.69e-09 M | koff [12]: 0.00018 s⁻¹ | IC50 [13]: 0.6 nM
B9: HER3MS00118 (VHH)
VHH: EVQLVESGGGLVQPGGSLRLSCAASGSIGGLNAMAWYRQAPGKERELVAGIFGVGSTRYADSVKGRFTISRDNSKNTVYLQMNSLRAEDTAVYYCRMSSVTRGSSDYWGQGTLVTVSS
notes: 17B05 second round, S84A; also called HER3MS0118

IC50 pHER3 blocking, HRG stimulated MCF7 [11]: 4.28e-09 M | koff [12]: 0.00019 s⁻¹ | IC50 [13]: 0.75 nM
B10: HER3MS00120 (VHH)
VHH: DVQLVESGGGLVQPGGSLRLSCAASGSIGGLNAMAWYRQAPGKERELVAGIFGVGSTRYADSVKGRFTISRDNSKNTVYLQMNSLRAEDTAVYYCRMSSVTRGSSDYWGQGTLVTVSS
notes: 17B05 second round, E1D, S84A; also called HER3MS0120

IC50 pHER3 blocking, HRG stimulated MCF7 [11]: 1.7e-09 M | koff [12]: 0.00018 s⁻¹ | IC50 [13]: 0.79 nM
B11: HER3MS00119 (VHH)
VHH: EVQLVESGGGLVQPGGSLRLSCAASGSIGGLNAMAWYRQAPGKERELVAGIFGVGSTRYADSVKGRFTISRDNSKNTVYLQMNSLRPEDTAVYYCRMSSVTRGSSDYWGQGTLVTVSS
notes: 17B05 second round, S84P (final variant); also called HER3MS0119

IC50 pHER3 blocking, HRG stimulated MCF7 [11]: 3.53e-09 M | koff [12]: 0.00018 s⁻¹ | IC50 [13]: 0.55 nM
B12: HER3MS00121 (VHH)
VHH: DVQLVESGGGLVQPGGSLRLSCAASGSIGGLNAMAWYRQAPGKERELVAGIFGVGSTRYADSVKGRFTISRDNSKNTVYLQMNSLRPEDTAVYYCRMSSVTRGSSDYWGQGTLVTVSS
notes: 17B05 second round, E1D, S84P (final variant for N-terminal use); also called HER3MS0121
